Assay results as given in the supplement of paper PMC10065799, “High-throughput profiling of sequence recognition by tyrosine kinases and SH2 domains using bacterial peptide display” (eLife, 2023).

Legend:
Fyn = Fyn (UniProt P06241); experiment: phosphorylation enrichment, bacterial display (enrichment ratio); higher = better substrate or ligand; peptides without Tyr show the background
AncSZ = experiment: as above
c-Abl (mouse) = experiment: as above
c-Src = experiment: as above
EPHB2 = EPHB2 (UniProt P29323); experiment: as above
Sequence of EPHB2 (P29323 whole entry, looked up): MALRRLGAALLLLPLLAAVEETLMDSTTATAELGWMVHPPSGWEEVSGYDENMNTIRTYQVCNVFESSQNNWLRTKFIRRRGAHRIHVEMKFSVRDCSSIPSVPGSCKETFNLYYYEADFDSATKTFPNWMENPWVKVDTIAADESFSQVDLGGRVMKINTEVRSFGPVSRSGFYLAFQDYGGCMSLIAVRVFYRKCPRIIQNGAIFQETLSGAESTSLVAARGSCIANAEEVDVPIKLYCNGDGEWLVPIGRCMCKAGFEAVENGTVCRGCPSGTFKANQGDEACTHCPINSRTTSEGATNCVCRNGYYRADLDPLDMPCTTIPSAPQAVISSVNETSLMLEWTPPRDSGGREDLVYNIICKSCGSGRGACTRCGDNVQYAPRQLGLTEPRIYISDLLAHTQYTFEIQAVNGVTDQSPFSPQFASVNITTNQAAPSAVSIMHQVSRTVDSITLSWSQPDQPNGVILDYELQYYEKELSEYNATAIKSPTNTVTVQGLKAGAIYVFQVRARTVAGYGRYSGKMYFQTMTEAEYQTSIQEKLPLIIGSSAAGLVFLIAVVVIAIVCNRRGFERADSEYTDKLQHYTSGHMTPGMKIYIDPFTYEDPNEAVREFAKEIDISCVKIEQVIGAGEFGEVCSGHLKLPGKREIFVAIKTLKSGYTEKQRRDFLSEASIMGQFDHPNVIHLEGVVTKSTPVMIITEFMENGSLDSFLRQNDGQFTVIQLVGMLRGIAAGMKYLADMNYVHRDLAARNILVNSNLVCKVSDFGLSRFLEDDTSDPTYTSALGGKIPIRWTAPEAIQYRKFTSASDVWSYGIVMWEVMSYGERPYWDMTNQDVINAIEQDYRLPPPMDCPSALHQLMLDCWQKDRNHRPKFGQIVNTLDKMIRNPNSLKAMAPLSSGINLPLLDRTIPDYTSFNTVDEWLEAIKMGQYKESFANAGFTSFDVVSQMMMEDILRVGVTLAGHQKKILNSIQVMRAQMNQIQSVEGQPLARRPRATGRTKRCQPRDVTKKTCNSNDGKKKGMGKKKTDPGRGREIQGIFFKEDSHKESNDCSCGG

Jak2 = Jak2 (UniProt O60674); experiment: as above
Fes = Fes (UniProt P07332); experiment: as above
Sequence of Fes (P07332 whole entry, looked up): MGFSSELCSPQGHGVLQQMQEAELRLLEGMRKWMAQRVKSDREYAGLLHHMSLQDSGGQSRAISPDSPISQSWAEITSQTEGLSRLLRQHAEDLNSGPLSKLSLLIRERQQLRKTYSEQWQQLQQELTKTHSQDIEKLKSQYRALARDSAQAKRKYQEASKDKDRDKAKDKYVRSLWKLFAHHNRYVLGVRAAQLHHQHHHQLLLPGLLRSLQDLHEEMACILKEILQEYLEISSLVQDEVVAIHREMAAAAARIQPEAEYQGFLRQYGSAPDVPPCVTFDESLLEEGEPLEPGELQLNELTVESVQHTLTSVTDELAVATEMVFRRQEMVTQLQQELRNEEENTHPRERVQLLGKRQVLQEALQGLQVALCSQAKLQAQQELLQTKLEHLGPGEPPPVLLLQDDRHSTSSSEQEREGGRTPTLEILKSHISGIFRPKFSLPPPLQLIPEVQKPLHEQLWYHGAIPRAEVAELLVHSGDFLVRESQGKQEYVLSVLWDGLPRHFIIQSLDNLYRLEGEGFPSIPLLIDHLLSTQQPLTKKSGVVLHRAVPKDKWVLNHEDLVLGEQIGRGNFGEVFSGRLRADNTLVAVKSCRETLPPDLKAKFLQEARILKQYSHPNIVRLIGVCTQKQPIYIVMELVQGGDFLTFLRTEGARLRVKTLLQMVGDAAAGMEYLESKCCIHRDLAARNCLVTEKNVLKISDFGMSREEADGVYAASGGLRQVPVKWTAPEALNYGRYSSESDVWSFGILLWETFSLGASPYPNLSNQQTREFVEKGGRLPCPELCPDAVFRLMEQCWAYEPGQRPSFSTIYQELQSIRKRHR

EPHB1 = EPHB1 (UniProt P54762); experiment: as above
Sequence of EPHB1 (P54762 whole entry, looked up): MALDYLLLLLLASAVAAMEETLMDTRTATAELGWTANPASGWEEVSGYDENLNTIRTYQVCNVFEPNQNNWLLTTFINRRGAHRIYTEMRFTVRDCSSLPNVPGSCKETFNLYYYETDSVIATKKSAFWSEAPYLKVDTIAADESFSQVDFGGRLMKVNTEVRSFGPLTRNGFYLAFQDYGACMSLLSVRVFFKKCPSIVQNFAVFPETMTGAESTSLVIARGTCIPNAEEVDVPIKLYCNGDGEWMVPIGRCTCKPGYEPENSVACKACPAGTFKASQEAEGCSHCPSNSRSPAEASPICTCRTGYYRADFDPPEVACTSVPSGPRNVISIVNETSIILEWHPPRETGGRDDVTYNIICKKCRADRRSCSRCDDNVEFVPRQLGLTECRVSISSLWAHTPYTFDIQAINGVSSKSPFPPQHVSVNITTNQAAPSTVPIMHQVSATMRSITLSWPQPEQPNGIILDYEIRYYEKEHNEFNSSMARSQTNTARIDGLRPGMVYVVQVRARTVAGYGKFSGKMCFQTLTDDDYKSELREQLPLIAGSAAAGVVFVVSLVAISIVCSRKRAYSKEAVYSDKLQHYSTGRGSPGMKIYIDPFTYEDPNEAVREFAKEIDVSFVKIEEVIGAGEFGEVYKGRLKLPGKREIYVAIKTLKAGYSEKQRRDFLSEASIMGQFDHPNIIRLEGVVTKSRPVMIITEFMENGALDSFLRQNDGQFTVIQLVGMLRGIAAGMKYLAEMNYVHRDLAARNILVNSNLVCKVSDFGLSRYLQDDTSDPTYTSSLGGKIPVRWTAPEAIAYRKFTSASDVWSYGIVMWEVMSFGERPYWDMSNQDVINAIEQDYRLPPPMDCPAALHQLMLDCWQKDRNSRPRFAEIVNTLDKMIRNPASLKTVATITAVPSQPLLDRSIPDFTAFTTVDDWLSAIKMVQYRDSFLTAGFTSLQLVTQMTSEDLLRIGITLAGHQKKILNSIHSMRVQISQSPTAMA

FGFR1 = FGFR1 (UniProt P11362); experiment: as above
Sequence of FGFR1 (P11362 whole entry, looked up): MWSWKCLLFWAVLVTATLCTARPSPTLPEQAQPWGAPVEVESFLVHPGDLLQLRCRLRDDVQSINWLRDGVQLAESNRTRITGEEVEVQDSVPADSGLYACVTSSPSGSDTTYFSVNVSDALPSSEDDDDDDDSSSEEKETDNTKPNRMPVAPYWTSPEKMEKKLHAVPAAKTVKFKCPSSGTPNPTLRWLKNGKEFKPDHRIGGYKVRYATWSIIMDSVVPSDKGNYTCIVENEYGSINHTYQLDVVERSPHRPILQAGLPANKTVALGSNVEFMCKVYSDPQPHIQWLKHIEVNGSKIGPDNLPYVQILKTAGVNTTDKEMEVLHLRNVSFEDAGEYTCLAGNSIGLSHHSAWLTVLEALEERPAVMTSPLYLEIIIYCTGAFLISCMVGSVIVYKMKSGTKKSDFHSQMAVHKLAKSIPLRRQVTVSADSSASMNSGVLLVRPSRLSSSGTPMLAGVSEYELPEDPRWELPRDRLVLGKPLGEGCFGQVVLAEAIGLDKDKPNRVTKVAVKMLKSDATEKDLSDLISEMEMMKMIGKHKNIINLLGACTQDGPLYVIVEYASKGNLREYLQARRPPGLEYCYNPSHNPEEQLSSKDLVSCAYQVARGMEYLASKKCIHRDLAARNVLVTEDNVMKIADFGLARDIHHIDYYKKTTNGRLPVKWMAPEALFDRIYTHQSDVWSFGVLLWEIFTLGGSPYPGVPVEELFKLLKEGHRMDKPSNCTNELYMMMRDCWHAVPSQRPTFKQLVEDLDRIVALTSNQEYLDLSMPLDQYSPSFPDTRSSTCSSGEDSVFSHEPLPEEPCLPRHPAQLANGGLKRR

Hck = Hck (UniProt P08631); experiment: as above
Sequence of Hck (P08631 whole entry, looked up): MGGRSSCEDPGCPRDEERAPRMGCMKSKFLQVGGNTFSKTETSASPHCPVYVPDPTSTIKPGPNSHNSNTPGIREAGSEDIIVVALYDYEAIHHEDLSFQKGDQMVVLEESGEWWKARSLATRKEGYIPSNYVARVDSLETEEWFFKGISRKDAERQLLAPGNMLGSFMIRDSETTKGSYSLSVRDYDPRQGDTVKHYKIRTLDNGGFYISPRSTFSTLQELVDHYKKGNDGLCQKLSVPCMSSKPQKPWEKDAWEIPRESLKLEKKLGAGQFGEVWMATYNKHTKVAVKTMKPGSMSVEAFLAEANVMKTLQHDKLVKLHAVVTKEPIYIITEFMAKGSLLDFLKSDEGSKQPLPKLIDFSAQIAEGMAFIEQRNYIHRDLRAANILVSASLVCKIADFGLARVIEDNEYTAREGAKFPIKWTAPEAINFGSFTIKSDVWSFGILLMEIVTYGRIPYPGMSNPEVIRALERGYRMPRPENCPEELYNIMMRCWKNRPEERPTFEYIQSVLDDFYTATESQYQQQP

MERTK = MERTK (UniProt Q12866); experiment: as above
Fer (mouse) = experiment: as above
FGFR3 = FGFR3 (UniProt P22607); experiment: as above
Grb2 SH2 = Grb2 SH2 (UniProt P62993); experiment: SH2 binding enrichment of the phosphorylated peptide, bacterial display (enrichment ratio); higher = better substrate or ligand; peptides without Tyr show the background
c-Src SH2 = experiment: as above
SHP2-C SH2 = experiment: as above
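Throughout, for SH2 binding enrichment of the phosphorylated peptide, bacterial display: peptide library displayed on the E. coli surface as eCPX fusions, selected cells deep-sequenced, score is each peptide's frequency after selection divided by its frequency in the input.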
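Throughout, for phosphorylation enrichment, bacterial display: 11-residue human phosphosite peptides and single-mutation variants displayed on the E. coli surface, counted by deep sequencing, each peptide's frequency after selection divided by its frequency in the unselected input library; frequency after pTyr selection over input frequency; kinase dosed for 20-30% of maximal phosphorylation in three min.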

Sequence of Fyn (P06241 whole entry, looked up): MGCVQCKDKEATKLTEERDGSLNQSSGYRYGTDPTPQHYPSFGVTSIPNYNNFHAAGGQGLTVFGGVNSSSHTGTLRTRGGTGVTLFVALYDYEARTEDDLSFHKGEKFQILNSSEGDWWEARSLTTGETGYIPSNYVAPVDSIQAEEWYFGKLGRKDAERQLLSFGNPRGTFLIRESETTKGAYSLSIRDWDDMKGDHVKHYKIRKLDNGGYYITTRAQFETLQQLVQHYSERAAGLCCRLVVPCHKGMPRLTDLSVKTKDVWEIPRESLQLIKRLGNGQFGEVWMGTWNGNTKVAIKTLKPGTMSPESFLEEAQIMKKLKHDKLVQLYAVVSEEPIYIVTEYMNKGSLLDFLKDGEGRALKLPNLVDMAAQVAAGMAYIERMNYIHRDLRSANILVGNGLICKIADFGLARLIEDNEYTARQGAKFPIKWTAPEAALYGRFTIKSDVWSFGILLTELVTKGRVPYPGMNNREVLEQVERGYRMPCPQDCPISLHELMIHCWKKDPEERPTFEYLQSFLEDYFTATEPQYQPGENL

Sequence | SH2 binding enrichment (Grb2 SH2) | SH2 binding enrichment (c-Src SH2) | SH2 binding enrichment (SHP2-C SH2) | phosphorylation enrichment (Fyn) | phosphorylation enrichment (AncSZ) | phosphorylation enrichment (c-Abl (mouse)) | phosphorylation enrichment (c-Src) | phosphorylation enrichment (EPHB2) | phosphorylation enrichment (Jak2) | phosphorylation enrichment (Fes) | phosphorylation enrichment (EPHB1) | phosphorylation enrichment (FGFR1) | phosphorylation enrichment (Hck) | phosphorylation enrichment (MERTK) | phosphorylation enrichment (Fer (mouse)) | phosphorylation enrichment (FGFR3)
NLMPAYHKCIQ [CYP21A2_Y190_Y191H] | 0.878 | 0.65 | 0.5 | 0.519 | 0.91 | 0.71 | 0.501 | 0.586 | 0.969 | 1.01 | 0.501 | 0.493 | 0.521 | 0.518 | 0.507 | 0.707
NQNIGYELGHR [KCNN3_Y268_K269E] | 0.892 | 0.672 | 0.683 | 0.528 | 0.496 | 0.425 | 0.305 | 0.318 | 0.348 | 0.486 | 0.449 | 0.343 | 0.37 | 0.276 | 0.289 | 0.403
NRVEIYEKTVE [CYFIP1_Y108] | 0.803 | 0.678 | 0.85 | 0.511 | 1.07 | 0.919 | 0.599 | 0.654 | 1.27 | 1.18 | 0.713 | 0.523 | 0.628 | 0.5 | 0.582 | 0.696
NTFEKYWPFFQ [GATM_Y103_YF] | 1.5 | 0.926 | 1.24 | 0.69 | 0.987 | 0.795 | 0.935 | 0.512 | 0.898 | 1.09 | 0.488 | 1.08 | 1.42 | 0.886 | 0.429 | 1.08
NTVLGYFIGRI [GARS1_Y408] | 1.14 | 0.637 | 1.08 | 0.427 | 0.973 | 0.634 | 0.348 | 0.44 | 0.735 | 1.09 | 0.48 | 0.443 | 0.495 | 0.423 | 0.479 | 0.617
NVQIVYKPVDL [MAPT_Y627_S622N] | 0.982 | 0.58 | 0.738 | 0.414 | 0.955 | 0.723 | 0.415 | 0.492 | 0.796 | 0.903 | 0.507 | 0.532 | 0.477 | 0.354 | 0.502 | 0.648
PATINYPFEKG [NDUFS8_Y84] | 1.09 | 0.663 | 0.587 | 1.04 | 0.88 | 0.491 | 0.674 | 0.218 | 0.776 | 1.18 | 0.65 | 0.521 | 0.342 | 0.556 | 0.595 | 0.565
PEADKYHLTFA [FGG_Y300_R301H_YF] | 0.637 | 0.301 | 0.254 | 0.73 | 1.88 | 2.22 | 1.03 | 0.788 | 1.98 | 1.8 | 2.12 | 0.725 | 0.939 | 0.75 | 0.802 | 1.5
PEADKYRLPYA [FGG_Y300_T303P] | 0.741 | 0.402 | 0.612 | 0.467 | 0.763 | 0.571 | 0.488 | 0.715 | 1.33 | 1 | 0.89 | 0.439 | 0.598 | 0.477 | 0.521 | 0.552
PEFMVYKPQME [CCRL2_Y170_V168M] | 0.794 | 0.457 | 0.635 | 0.494 | 1.03 | 0.685 | 0.884 | 0.624 | 0.898 | 1.06 | 0.665 | 0.592 | 0.661 | 0.464 | 0.476 | 0.867
PESCFYKESWL [IQGAP2_Y630_L629F] | 1.05 | 0.63 | 0.823 | 0.616 | 1.51 | 0.766 | 0.516 | 0.671 | 0.941 | 1.57 | 0.772 | 0.707 | 0.555 | 0.538 | 0.973 | 1.31
PFQGAYLKINK [MYO1B_Y967_E969K] | 1.11 | 1.61 | 0.908 | 0.582 | 1.1 | 0.88 | 0.319 | 0.571 | 1.18 | 1.52 | 0.539 | 0.417 | 0.643 | 0.461 | 0.853 | 0.909
PFTRNYFVQAV [CYBA_Y87_R90Q_YF] | 0.634 | 0.533 | 0.467 | 0.943 | 0.963 | 0.65 | 0.353 | 0.747 | 0.6 | 1.2 | 0.601 | 1.16 | 0.979 | 0.763 | 1.25 | 0.905
PGAGHYEDTIL [ALK_Y1604] | 0.797 | 3.04 | 0.559 | 0.809 | 1.15 | 0.765 | 0.391 | 0.597 | 0.896 | 1.16 | 0.871 | 0.664 | 0.786 | 0.597 | 6.12 | 0.881
PGGNIYISPLK [RB1_Y805] | 1.39 | 1.04 | 1.72 | 0.804 | 0.902 | 1.75 | 0.757 | 0.571 | 0.529 | 0.58 | 0.4 | 0.545 | 2.65 | 0.685 | 0.804 | 0.526
PGIRMYRVQYN [LRFN1_Y454_Q455R] | 0.838 | 0.507 | 0.714 | 0.486 | 0.759 | 0.675 | 0.473 | 0.586 | 0.626 | 1.08 | 0.744 | 0.58 | 0.62 | 0.527 | 0.989 | 0.713
PGLRGYPGLSG [COL4A2_Y306] | 0.958 | 0.383 | 0.698 | 0.481 | 0.709 | 0.508 | 0.674 | 0.442 | 1.45 | 0.87 | 0.894 | 0.621 | 0.505 | 0.599 | 0.449 | 0.468
PIPAAYNKYDQ [CDC73_Y290_R292K] | 0.39 | 0.478 | 1.33 | 0.46 | 0.707 | 0.944 | 0.689 | 0.599 | 0.754 | 0.904 | 0.417 | 0.608 | 0.595 | 0.617 | 0.394 | 0.448
PKKKQYTSIHH [APP_Y728_L723P] | 1.01 | 0.936 | 0.946 | 0.757 | 0.646 | 0.617 | 0.457 | 0.646 | 0.85 | 0.849 | 0.441 | 0.71 | 0.755 | 0.656 | 0.595 | 0.928
PNLILYGDFRQ [MYH7_Y715_R712L] | 0.944 | 0.482 | 0.823 | 5.16 | 1.09 | 0.766 | 2.98 | 0.602 | 0.75 | 1.28 | 0.688 | 0.552 | 2.87 | 0.465 | 0.72 | 0.762
PPNSPYIGSSP [KCNT1_Y740] | 0.783 | 0.371 | 0.557 | 0.464 | 0.501 | 0.572 | 0.352 | 0.468 | 0.417 | 0.557 | 0.493 | 0.537 | 0.457 | 0.422 | 0.382 | 0.362
PPNSPYMGSSP [KCNT1_Y740_I741M] | 0.869 | 0.481 | 0.759 | 0.546 | 1.01 | 0.782 | 0.59 | 0.536 | 0.825 | 0.868 | 0.497 | 0.632 | 0.521 | 0.468 | 0.612 | 0.818
PPSLSYLSFEG [EXOSC3_Y143_A139P] | 1.07 | 0.504 | 0.814 | 0.464 | 0.756 | 0.702 | 1.1 | 0.448 | 1.36 | 0.886 | 0.556 | 0.595 | 0.517 | 0.602 | 0.451 | 0.713

Now from value to sequence, other results behind:

SH2 binding enrichment (Grb2 SH2) | SH2 binding enrichment (c-Src SH2) | SH2 binding enrichment (SHP2-C SH2) | Sequence | phosphorylation enrichment (Fyn) | phosphorylation enrichment (AncSZ) | phosphorylation enrichment (c-Abl (mouse)) | phosphorylation enrichment (c-Src) | phosphorylation enrichment (EPHB2) | phosphorylation enrichment (Jak2) | phosphorylation enrichment (Fes) | phosphorylation enrichment (EPHB1) | phosphorylation enrichment (FGFR1) | phosphorylation enrichment (Hck) | phosphorylation enrichment (MERTK) | phosphorylation enrichment (Fer (mouse)) | phosphorylation enrichment (FGFR3)
0.655 | 4.5 | 1.92 | NLAAQYTTVGR [SGSH_Y240_D235N] | 0.401 | 0.444 | 0.416 | 0.494 | 0.312 | 0.414 | 0.489 | 0.304 | 0.376 | 0.568 | 0.438 | 0.36 | 0.375
0.707 | 0.518 | 0.479 | NNKKDYFDMFE [SLC26A3_Y526_K521N_YF] | 0.415 | 1.08 | 0.723 | 0.488 | 0.791 | 0.991 | 1.16 | 1.12 | 5.31 | 0.504 | 0.46 | 0.485 | 3.74
0.924 | 5 | 0.963 | NQDRTYYESVR [SPEN_Y632] | 1.4 | 0.897 | 0.787 | 2 | 0.661 | 0.762 | 0.819 | 0.569 | 1.02 | 2.05 | 1.02 | 0.993 | 0.828
0.537 | 0.352 | 0.709 | NQELIYEGQRL [TBK1_Y354_R357Q] | 7.4 | 1.71 | 2.65 | 6.85 | 1.11 | 0.956 | 1.42 | 1 | 0.628 | 7.73 | 1.52 | 11.6 | 0.739
0.819 | 0.586 | 0.725 | NWGSPYKSNGC [ZNF347_Y261] | 0.373 | 0.894 | 0.667 | 0.52 | 0.569 | 0.759 | 1.09 | 0.459 | 0.48 | 0.52 | 0.41 | 0.48 | 0.546
0.912 | 0.565 | 0.549 | PEVSGYCHCAD [TG_Y234] | 0.976 | 2.1 | 1.83 | 1.2 | 1.4 | 2.21 | 2.79 | 3.57 | 1.11 | 1.08 | 0.936 | 1.14 | 1.56
0.756 | 0.55 | 0.892 | PGQRVYVVAES [SHH_Y316_R321S] | 0.538 | 1.06 | 0.896 | 0.546 | 0.507 | 1.07 | 1.45 | 0.695 | 0.494 | 0.748 | 0.377 | 0.728 | 0.848
0.816 | 0.444 | 0.809 | PLYGEYFTLQI [TP53_Y327_D324Y] | 16.3 | 4.94 | 9.14 | 12.6 | 18.6 | 15.3 | 2.44 | 15.8 | 17.6 | 11.6 | 9.96 | 3.72 | 14.9
0.85 | 0.395 | 0.375 | PNATLYKMSSI [SERPINA7_Y40] | 0.35 | 0.592 | 0.472 | 0.349 | 0.325 | 0.358 | 0.55 | 0.456 | 0.406 | 0.401 | 0.361 | 0.397 | 0.495
0.614 | 0.405 | 0.679 | PPSELYFVKVD [TERT_Y707_P704S] | 0.784 | 1.19 | 0.733 | 1.26 | 0.965 | 0.925 | 1.63 | 0.699 | 0.815 | 1.95 | 1.82 | 0.815 | 0.92
